Reference: paper PMC7393505

Molecular target: 4×SUMO2 linear fusion (C47A) with a single C-terminal cysteine labelled with Alexa488
Test: fluorescence polarisation; unlabelled RNF4 titrated against 1 µM 4×SUMO-Alexa488; 50 mM Tris, 150 mM NaCl, 0.5 mM TCEP, pH 7.5; room temperature, 10 min before measuring FP

Kd: 2600 nM
Substance: RNF4 ∆Basic, full-length (basic charge removed from the arginine-rich motif) (from UniProt O88846 1-194) (enzyme)
